From patent US20180230213A1 (AVEO PHARMACEUTICALS, published 2018)
Numbering of substitutions follows the chain as printed. In names and notes the source's numbering stands.

T1: monomeric recombinant human Notch3 extracellular domain (containing EGF like domains 1-11) fusion protein (human, UniProt Q9UM47 40-467)
T1 construct: domain: EGF like domains 1-11; also called monomeric rhNotch3
T1 sequence (looked up): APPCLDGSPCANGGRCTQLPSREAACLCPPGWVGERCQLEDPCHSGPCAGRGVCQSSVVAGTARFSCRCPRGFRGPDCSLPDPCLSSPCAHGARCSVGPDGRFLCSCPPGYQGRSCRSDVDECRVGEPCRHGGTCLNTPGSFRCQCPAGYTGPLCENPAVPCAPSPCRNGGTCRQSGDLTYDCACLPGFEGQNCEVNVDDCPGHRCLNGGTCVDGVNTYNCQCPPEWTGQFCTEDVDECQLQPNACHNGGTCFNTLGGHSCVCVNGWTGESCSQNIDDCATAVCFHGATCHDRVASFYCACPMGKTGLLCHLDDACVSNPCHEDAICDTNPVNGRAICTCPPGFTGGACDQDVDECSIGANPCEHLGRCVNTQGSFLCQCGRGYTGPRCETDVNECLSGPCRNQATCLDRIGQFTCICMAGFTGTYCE

B1: Hu4F11-70 (antibody, human IgG1, kappa, V domains shown)
VH: EVQLLESGGGLVQPGGSLRLSCAASGFTFSHYDMSWVRQAPGKGLEWVSYISRGGGSTYYPDSVKGRFTISRDNSKNTLYLQMNSLRAEDTAVYYCGRHATTAYWYFDVWGQGTMVTVSS
VL: DVVMTQTPLSLSVTPGQPASISCRSSQSLVHTHGNTYLHWYLQKPGQSPQLLIYKVSNRFSGVPDRFSGSGSGTDFTLKISRVEAEDVGVYFCSQSTHVPWTFGQGTKVEIKR
notes: Humanized, human IgG1 kappa; Hv3-23 A28T S31H T62S heavy + Kv2D-29 N28H kappa
B2: Hu4F11-32 (antibody, human IgG1, kappa, V domains shown)
VH: B1 VH with T28A, H31S, S63T
VL: B1 VL with H33N
notes: Humanized, human IgG1 kappa; Sh4F11 Hv3-23 heavy + Hu4F11 Kv2D-29 kappa
B3: Hu4F11-69 (antibody, human IgG1, kappa, V domains shown)
VH: B1 VH with H31N
VL: B1 VL
notes: Humanized, human IgG1 kappa; Hv3-23 A28T S31N T62S heavy + Kv2D-29 N28H kappa
B4: Hu4F11-71 (antibody, human IgG1, kappa, V domains shown)
VH: B1 VH with H31S
VL: B1 VL
notes: Humanized, human IgG1 kappa; Hv3-23 A28T T62S heavy + Kv2D-29 N28H kappa
B5: Hu4F11-72 (antibody, human IgG1, kappa, V domains shown)
VH: B1 VH with T28A
VL: B1 VL
notes: Humanized, human IgG1 kappa; Hv3-23 S31H T62S heavy + Kv2D-29 N28H kappa
B6: Hu4F11-73 (antibody, human IgG1, kappa, V domains shown)
VH: B1 VH with H31N
VL: B1 VL with H33Y
notes: Humanized, human IgG1 kappa; Hv3-23 A28T S31N T62S heavy + Kv2D-29 N28Y kappa
B7: Hu4F11-74 (antibody, human IgG1, kappa, V domains shown)
VH: B1 VH
VL: B1 VL with H33Y
notes: Humanized, human IgG1 kappa; Hv3-23 A28T S31H T62S heavy + Kv2D-29 N28Y kappa
B8: Hu4F11-75 (antibody, human IgG1, kappa, V domains shown)
VH: B1 VH with H31S
VL: B1 VL with H33Y
notes: Humanized, human IgG1 kappa; Hv3-23 A28T T62S heavy + Kv2D-29 N28Y kappa
B9: Hu4F11-76 (antibody, human IgG1, kappa, V domains shown)
VH: B1 VH with T28A
VL: B1 VL with H33Y
notes: Humanized, human IgG1 kappa; Hv3-23 S31H T62S heavy + Kv2D-29 N28Y kappa
B10: Hu4F11-77 (antibody, human IgG1, kappa, V domains shown)
VH: B1 VH with H31N
VL: B1 VL with H33Q
notes: Humanized, human IgG1 kappa; Hv3-23 A28T S31N T62S heavy + Kv2D-29 N28Q kappa
B11: Hu4F11-78 (antibody, human IgG1, kappa, V domains shown)
VH: B1 VH
VL: B1 VL with H33Q
notes: Humanized, human IgG1 kappa; Hv3-23 A28T S31H T62S heavy + Kv2D-29 N28Q kappa
B12: Hu4F11-79 (antibody, human IgG1, kappa, V domains shown)
VH: B1 VH with H31S
VL: B1 VL with H33Q
notes: Humanized, human IgG1 kappa; Hv3-23 A28T T62S heavy + Kv2D-29 N28Q kappa
B13: Hu4F11-80 (antibody, human IgG1, kappa, V domains shown)
VH: B1 VH with T28A
VL: B1 VL with H33Q
notes: Humanized, human IgG1 kappa; Hv3-23 S31H T62S heavy + Kv2D-29 N28Q kappa

target: T1, monomeric recombinant human Notch3 …; test: SPR BIAcore T100, monomeric rhNotch3 analyte, 37 C, average of Table 16 and additional measurements
Procedure: (§1) Goat anti-human IgGs (Fc fragment specific, Jackson ImmunoResearch, West Grove, Pa.) were immobilized on carboxymethylated dextran CM4 sensor chips by amine coupling, according to a standard protocol. Analyses were performed at 25 and 37° C. using PBS containing 0.05% surfactant P20 as running buffer. The antibodies were captured in individual flow cells at a flow rate of 10 μL/minute. Injection time was varied for each antibody to yield an Rmax between 30 and 60 RU. Buffer or Notch3 protein diluted in running buffer was injected sequentially over a reference surface (no antibody captured) and the active surface (antibody to be tested) for 240 seconds at 60 μL/minute. The dissociation phase was monitored for up to 900 seconds. The surface was then regenerated with two 60-second injections of 10 mM Glycine-HCl, pH 2.25, at a flow rate of 30 μL/minute. The Notch3 concentration range tested was 50 nM to 6.25 nM.

Binder	Kd [nM]	koff [s⁻¹]	kon [M⁻¹ s⁻¹]
B1	7.5	0.0039	690000
B2	7.6	0.084	7.4e+06
B3	8.5	0.0037	710000
B4	9.2	0.0095	1.1e+06
B5	7	0.0069	710000
B6	11	0.0046	490000
B7	10	0.0051	490000
B8	10	0.013	1.7e+06
B9	8.2	0.0064	980000
B10	8.6	0.0074	1.2e+06
B11	9	0.006	820000
B12	16	0.0091	900000
B13	14	0.0056	590000

target: T1, monomeric recombinant human Notch3 …; test: SPR BIAcore T100, antibody captured by anti-human IgG Fc, monomeric rhNotch3 analyte, 37 C
Procedure: (§2) The binding affinities and kinetics of binding of chimeric and humanized antibodies to monomeric recombinant human Notch3 extracellular domain (containing EGF like domains 1-11) fusion protein (monomeric rhNotch3) and monomeric recombinant cynomologus monkey Notch3 extracellular domain (containing EGF like domains 1-12) fusion protein (monomeric rcNotch3) were measured by surface plasmon resonance, using a BIAcore® T100 instrument (GE Healthcare, Piscataway, N.J.).
as §1

Binder	Kd [nM]	koff [s⁻¹]	kon [M⁻¹ s⁻¹]
B1	3	0.0028	940000
B2	2.7	0.0046	1.7e+06
B3	2.9	0.0038	1.3e+06
B4	3	0.0037	1.2e+06
B5	5.2	0.00094	180000
B6	5.9	0.0013	210000
B7	3.9	0.0022	560000
B8	3.4	0.009	2.7e+06
B9	3.3	0.0055	1.7e+06
B10	3.3	0.0073	2.2e+06
B11	3.8	0.0055	1.5e+06
B12	3.2	0.006	1.8e+06
B13	3.8	0.0041	1.1e+06

target: T2, monomeric recombinant cynomologus monkey Notch3 extracellular domain (containing EGF like domains 1-12) … (cynomologus monkey); test: SPR BIAcore T100, antibody captured by anti-human IgG Fc, monomeric rcNotch3 analyte, 25 C
T2 construct: domain: EGF like domains 1-12; also called monomeric rcNotch3
Procedure: as §2, §1
Kinetic parameters were determined using the kinetic function of the BIAevaluation software (GE Healthcare) with double reference subtraction. Kinetic parameters for each antibody, kₐ (association rate constant), kd (dissociation rate constant), and KD (equilibrium dissociation constant) were determined.

Binder	Kd [nM]	koff [s⁻¹]	kon [M⁻¹ s⁻¹]
B1	5.2	0.001	200000
B2	18	0.0075	790000
B3	7.7	0.00094	120000
B4	2.7	0.004	1.5e+06
B5	1.6	0.0045	2.8e+06
B6	2.6	0.0019	760000
B7	2.8	0.0025	900000
B8	3.7	0.0026	720000
B9	2.5	0.0019	780000
B10	2.6	0.0025	960000
B11	2.2	0.0038	1.8e+06
B12	3.4	0.0046	1.3e+06
B13	4	0.0032	820000

target: T2, monomeric recombinant cynomologus …; test: SPR BIAcore T100, antibody captured by anti-human IgG Fc, monomeric rcNotch3 analyte, 37 C
Procedure: as §2, §1

Binder	Kd [nM]	koff [s⁻¹]	kon [M⁻¹ s⁻¹]
B1	9.1	0.0029	370000
B2	32	0.016	500000
B3	11	0.0038	400000
B4	14	0.0056	410000
B5	9.8	0.0032	440000
B6	15	0.0063	500000
B7	12	0.0045	440000
B8	24	0.0089	380000
B9	12	0.0062	540000
B10	12	0.01	910000
B11	11	0.007	660000
B12	23	0.021	980000
B13	12	0.01	910000
